US6022951A (priority 1996, dated 2000)

Test: stability against denaturation by guanidine hydrochloride (remaining biotin-binding ability)
Type: physicochemical
Method: Biotin-binding ability was used as an estimate of the structural stability.
Structural stability of core streptavidins against denaturation was estimated from the biotin-binding ability after incubation in guanidine hydrochloride solutions at pH 7.4 and pH 1.5. […] Then, 1.4 μl (680 pmol) of D-[carbonyl-^14 C]biotin was added to each solution. The mixture was incubated at 22° C. for 10 minutes and streptavidin-biotin complexes were separated from free, unbound biotin using PD-10 columns which had been equilibrated with the same guanidine hydrochloride solution (R. -D. Wei, Methods Enzymol. 18A:424-27, 1980).
All of the three core streptavidins bound more than 0.96 molecules of biotin per subunit at pH 7.4 without guanidine hydrochloride and the biotin-binding ability remaining in guanidine hydrochloride is indicated in percent.

[1] = 4 M guanidine hydrochloride, pH 1.5
[2] = 6 M guanidine hydrochloride, pH 7.4

full-length streptavidin: full length streptavidin, monomer of 159 amino acids
biotin bound per subunit in guanidine hydrochloride [1]: about 0.826 molecules biotin per subunit
reduction (loss) of biotin-binding ability [1]: ~15%
biotin bound per subunit in guanidine hydrochloride [2]: about 0.768 molecules biotin per subunit
reduction in biotin-binding ability [2]: about 20%
